Data on nine molecules can be found in US9968687B2, “Anti-DLL3 antibody drug conjugates” (AbbVie Stemcentrx LLC, priority 2013, dated 2018).

Assay [1] addresses T1, murine DLL3 (Mus musculus, UniProt O88516).
T1 construct: expressed in transfected cells; host or cells: 293 (HEK-293T) cells
T1 sequence (O88516 33-585 isoform O88516-2 limits assumed): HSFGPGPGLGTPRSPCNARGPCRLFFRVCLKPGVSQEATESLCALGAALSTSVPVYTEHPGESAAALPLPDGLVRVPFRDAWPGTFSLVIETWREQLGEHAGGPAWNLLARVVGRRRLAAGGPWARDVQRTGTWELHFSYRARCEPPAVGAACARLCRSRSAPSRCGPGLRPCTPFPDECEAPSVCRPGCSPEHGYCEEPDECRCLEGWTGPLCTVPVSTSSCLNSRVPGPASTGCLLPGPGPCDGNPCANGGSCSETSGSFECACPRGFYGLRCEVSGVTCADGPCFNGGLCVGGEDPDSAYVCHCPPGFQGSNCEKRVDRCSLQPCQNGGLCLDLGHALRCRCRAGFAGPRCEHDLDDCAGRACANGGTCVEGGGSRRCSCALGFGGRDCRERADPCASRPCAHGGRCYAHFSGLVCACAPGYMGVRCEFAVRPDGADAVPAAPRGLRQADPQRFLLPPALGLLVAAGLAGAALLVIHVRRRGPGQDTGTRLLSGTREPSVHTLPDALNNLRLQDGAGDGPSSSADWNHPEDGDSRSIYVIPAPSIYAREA
Nature of the assay: Flow cytometry on 293 cells over-expressing murine DLL3. It counts as binding. The protocol: In addition to evaluating the exemplary modulators as set forth above, flow cytometry was performed in order to confirm that selected SC16 antibody modulators can immunospecifically associate with human DLL3 and to determine whether the same antibodies cross-react with cynomolgus, rat and/or murine DLL3. More particularly the exemplary murine antibodies were analyzed by flow cytometry using a FACSCanto II and 293 cells over-expressing murine, rat, cynomolgus or human DLL3. In some cases, exemplary murine modulators were analyzed by flow cytometry using a FACSCanto II and yeast cells displaying cynomolgus DLL3 using the methods described by Cochran et al. (J Immunol Methods. 287 (1-2):147-158 (2004).
Such results are not unexpected given that murine DLL3 is approximately 83% homologous with isoform 2 of human DLL3. It will be appreciated that this cross-reactivity may be advantageously exploited in the context of the instant invention through the use of animal models in drug discovery and development.
(A flow cytometer gives signals particle by particle.)

Assay [2] addresses T2, human DLL3 antigen (Homo sapiens, UniProt Q9NYJ7).
T2 sequence (Q9NYJ7 27-618): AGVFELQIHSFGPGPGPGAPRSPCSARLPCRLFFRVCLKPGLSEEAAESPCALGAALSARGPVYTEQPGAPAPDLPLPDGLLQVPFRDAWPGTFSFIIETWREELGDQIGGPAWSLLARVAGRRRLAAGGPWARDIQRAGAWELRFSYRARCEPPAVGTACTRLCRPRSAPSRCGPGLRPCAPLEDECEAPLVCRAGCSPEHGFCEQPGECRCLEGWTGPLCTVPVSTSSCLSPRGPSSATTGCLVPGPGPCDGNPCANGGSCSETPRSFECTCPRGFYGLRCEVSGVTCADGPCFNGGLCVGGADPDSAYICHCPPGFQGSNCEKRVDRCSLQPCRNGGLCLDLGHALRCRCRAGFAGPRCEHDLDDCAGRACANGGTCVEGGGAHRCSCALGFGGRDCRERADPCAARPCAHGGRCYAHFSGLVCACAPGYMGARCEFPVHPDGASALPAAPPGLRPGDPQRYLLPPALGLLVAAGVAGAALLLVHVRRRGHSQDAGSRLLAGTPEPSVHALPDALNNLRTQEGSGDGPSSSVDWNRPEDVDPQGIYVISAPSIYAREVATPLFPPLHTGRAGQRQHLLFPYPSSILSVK
Briefly: Surface plasmon resonance (Biacore 2000), humanized versus chimeric constructs. The note with it: concentration series of 25 and 12.5 nM human DLL3 antigen, 1:1 Langmuir binding model, estimated, read-out: KD of antibody binding to human DLL3 antigen. The protocol: Besides the aforementioned assays, humanized constructs hSC16.13, hSC16.15, hSC16.25, hSC16.34 and hSC16.56 from Example 4 were analyzed to determine if the CDR grafting process had appreciably altered their binding characteristics. In this respect the humanized constructs (CDR grafted) were compared with “traditional” chimeric antibodies comprising the murine parent (or donor) heavy and light chain variable domains and a human constant region substantially equivalent to that used in the humanized constructs. With these constructs surface plasmon resonance (SPR) was conducted using a Biacore 2000 (GE Healthcare) to identify any subtle changes in rate constants brought about by the humanization process.
Based on a concentration series of 25 and 12.5 nM of human DLL3 antigen and using a 1:1 Langmuir binding model, the KD of the SC16.15 antibody binding to human DLL3 antigen was estimated to be 0.2 nM.

B1: SC16.4: murine anti-DLL3 monoclonal antibody; VL/VH SEQ ID NOS: 25 and 27 (antibody, listed as Mus musculus, V domains shown)
VH: QIQLVQSGPELKKPGETVKISCKASGYTFTDYSMHWVKQAPGKGLKWMGWINTETGEPGYADDFKGRFAFSLETSASTAYLQINNLKNEDTATYFCARYDGYAMDYWGQGTSVTVSS
VL: DIQMTQTTSSLSASLGDRVTISCRASQDISNYLNWYQQKPDGTVKLLIYYTSRLHSGVPSRFSGSGSGTDYSLTISNLELEDIATYFCQQGDMLPWTFGGGTKLEIK
Take B1: the “cross-reactivity with murine DLL3” value in assay [1] is recorded as “cross-react with murine DLL3 to a greater or lesser extent”.

B2: SC16.15: murine anti-DLL3 monoclonal antibody, sequences in FIGS. 3A and 3B (antibody, V domains shown)
VL: DIQMTQSPASLAASVGETVAITCRASENIYYNLAWYQQKQGKSPQLLIYTANSLEDGVPSRFSGSGSGTQYSLKINSMQPEDSATYFCKQAYDVPPTFGGGTKLEIK
VH: QVQLQQSGAELAKPGASVKMSCKASGYTFTRYWIHWIKQRPGQGLEWIGYINPTTVYTEFNQNFKDKATLTADKSSTTASMQLSSLTSEDSAVYYCARGGSNFFDYWGQGTTLTVSS
On to B2, for which the Kd in assay [2] was ~0.2 nM. Further, the “cross-reactivity with murine DLL3” value in assay [1] was “cross-react with murine DLL3 to a greater or lesser extent”.

B3: SC16.8: murine anti-DLL3 monoclonal antibody, sequences in FIGS. 3A and 3B (antibody, V domains shown)
VL: EIQMTQSPSSMSASLGDRITITCQATQDIVKNLNWYQQKPGKPPSFLIYYAIELAEGVPSRFSGSGSGSDYSLTISNLESEDFADYYCLQFYEFPFTFGAGTKLELK
VH: QAQLQQSGAELVRPGTSVKVSCKASGYAFTNYLIEWVKQRPGQGLEWIGVINPGTGGTNYNENFKGKATLTADKSSSTAYMQLSSLTSDDSAVYFCARSPYDYHEGAMDYWGQGTSVTVSS
As to B3, in assay [1], the “cross-reactivity with murine DLL3” value is “cross-react with murine DLL3 to a greater or lesser extent”.

B4: SC16.10: murine anti-DLL3 monoclonal antibody, sequences in FIGS. 3A and 3B (antibody, V domains shown)
VL: QIVLTQSPAIMSASLGERVTMTCTASSSVSSSYLHWYQQKPGSSPKLWIYSTSNLASGVPTRFSGSGSGTSYSLTISSMEAEDAATYYCHQYHRSPFTFGSGTKLEIK
VH: QVTLKESGPGILQSSQTLSLTCSFSGFSLSTSGMGVGWIRQPSGKGLEWLAHIWWDDVKRYNPVLKSRLTISKDTSSSQVFLKIASVDTADTATYYCARLVDDLYYFDYWGQGTTLTVSS
Consider B4, for which the “cross-reactivity with murine DLL3” value in assay [1] is “did not appreciably associate with murine DLL3”.

B5: SC16.25: murine anti-DLL3 monoclonal antibody, sequences in FIGS. 3A and 3B (antibody, V domains shown)
VL: QIVLTQSPAIMSASPGEKVTMTCSASSSVSYMHWYQQKSGTSPKRWIYDSSKLASGVPARFSGSGSGTSYSLTISSMEAEDAATYYCQQWSSNPLTFGAGTKLELK
VH: QVTLKESGPGILQPSQTLSLTCSFSGFSLSTSGMGVGWIRQPSGEGLEWLTDIWWDDNKYYNPSLKSRLTISKDTSSNQVFLNITSVDTADTATYYCARRVNYYYDPYYAMDYWGQGTSVTVSS
With B5, in assay [1], the “cross-reactivity with murine DLL3” value was “did not appreciably associate with murine DLL3”.

B6: SC16.13: murine anti-DLL3 monoclonal antibody, sequences in FIGS. 3A and 3B (antibody, V domains shown)
VL: QIVLTQSPALVSASPGEKVTMTCSASSSVSYMYWYQQKPRSSPKPWIYLTSNLASGVPARFSGSGSGTSYSLTISSMEAEDAATYYCQQWRSNPFTFGSGTKLEIK
VH: QVTLKESGPGILQPSQTLSLTCSFSGFSLSTSGMGVGWIRQPSGKGLEWLAHIWWDDVKRYNPALKSRLTISKDTSSSQVFLKIASVDTADTATYYCARIVSFDNDVVSAMDYWGQGTSVTVSS
Consider B6, for which the “cross-reactivity with murine DLL3” value in assay [1] was “did not appreciably associate with murine DLL3”.

B7: SC16.65: murine anti-DLL3 monoclonal antibody, sequences in FIGS. 3A and 3B (antibody, V domains shown)
VL: QIVLTQSPALMSASPGEKVTMTCSVTSSVSYMYWYQQKPRSSPKPWIYLTSNLASGVPARFSGSGSGTSYSLTISSVEAEDAATYYCQQWRNNPFTFGSGTKVEIK
VH: QVTLKESGPGILQPSQTLSLTCSFSGFSLSTSGMGVGWIRQPSGKGLEWLALIWWDDVKRYNPALKSRLTISKDASSSQVFLKIASVDTADTATYYCARIASYDYDVVYAMDYWGQGTSVSVSS
B7: the “cross-reactivity with murine DLL3” value in assay [1] is on record as “did not appreciably associate with murine DLL3”.

B8: SC16.34: murine anti-DLL3 monoclonal antibody, sequences in FIGS. 3A and 3B (antibody, V domains shown)
VL: SIVMTQTPKFLLVSAGDRVTITCKASQSVSNDVAWYQQKPGQSPKLLIYYASNRYSGVPDRFTGSGYGTDFTFTISTVQAEDLAVYFCQQDYSSPWTFGGGTKLEIK
VH: QIQLVQSGPELKRPGETVKISCKASGYTFTNYGMNWVKQAPGKGLKWMGWINTYTGDPTYADDFKGRFAFSLETSASTAYLQINNLKNEDTATYFCARIGGNSPSDYWGQGTSLTVSS
As for B8, the “cross-reactivity with murine DLL3” value in assay [1] is “cross-react with murine DLL3 to a greater or lesser extent”.

B9: SC16.56: murine anti-DLL3 monoclonal antibody, sequences in FIGS. 3A and 3B (antibody, V domains shown)
VL: SIVMTQTPKFLLVSAGDRVTITCKASQSVSNDVVWYQQKPGQSPKLLIYYASNRYTGVPDRFAGSGYGTDFSFTISTVQAEDLAVYFCQQDYTSPWTFGGGTKLEIR
VH: QIQLVQSGPELKKPGETVKISCKASGYTFTNYGMNWVKQAPGKGLKWMAWINTYTGEPTYADDFKGRFAFSLETSASTASLQIINLKNEDTATYFCARIGDSSPSDYWGQGTTLTVSS
For the molecule B9, the “cross-reactivity with murine DLL3” value in assay [1] is “cross-react with murine DLL3 to a greater or lesser extent”.

The term Kd denotes the free concentration of one partner at which half of the binding sites on the other are occupied at equilibrium, for simple one-to-one binding.
